Data taken from publication PMC7924223, “Functionalization of the BCL6 BTB domain into a noncovalent crystallization chaperone” (IUCrJ, 2021).

Molecular target: BCL6 BTB domain (BCL6^BTB), residues 6-129 with C8Q, C67R and C84N (human, UniProt P41182 6-129, C8Q | C67R | C84N)
Experiment: crystal structure; co-crystallization at 298 K; BCL6 proteins at 300 µM (monomer) in 20 mM HEPES pH 7.5, 300 mM NaCl, 3 mM β-mercaptoethanol; NCoR1^BBD1 peptide in 4:1, NCoR1^BBD2 peptide in 8:1 molar excess; the complex with nebulin^SH3-NCoR1^BBD1 purified by size-exclusion chromatography before crystallization
Conditions: both partners purified

binding result: binds
B1: NCoR1^BBD1 peptide (high-affinity BCL6-binding domain 1 of the corepressor NCoR1) (peptide)
peptide: GITTIKEMGRSIHEIPR
notes: source: synthetic peptide (GL Biochem Shanghai Ltd)
